Values belong to the binder of their own block, whether it stands above or below them.
Target: T1, 人白介素17A (Human Interleukin-17A) (human, UniProt Q16552 24-155)
T1 construct: also called hIL-17A; IL-17A
Assay: SPR Biacore T200, 25°C, antibody captured on Protein A CM5 chip, antigen in solution, 1:1 model

T1 sequence (Q16552 24-155): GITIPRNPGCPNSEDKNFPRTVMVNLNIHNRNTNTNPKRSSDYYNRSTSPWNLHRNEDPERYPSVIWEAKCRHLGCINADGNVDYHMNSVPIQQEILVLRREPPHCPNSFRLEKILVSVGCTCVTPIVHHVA

- Kd: 0.0154 nM
- koff: 2.58e-05 s⁻¹
- kon: 1.7e+06 M⁻¹ s⁻¹
B1: Ixekizumab (antibody, V domains shown)
VH: QVQLVQSGAEVKKPGSSVKVSCKASGYSFTDYHIHWVRQAPGQGLEWMGVINPMYGTTDYNQRFKGRVTITADESTSTAYMELSSLRSEDTAVYYCARYDYFTGTGVYWGQGTLVTVSS
VL: DIVMTQTPLSLSVTPGQPASISCRSSRSLVHSRGNTYLHWYLQKPGQSPQLLIYKVSNRFIGVPDRFSGSGSGTDFTLKISRVEAEDVGVYYCSQSTHLPFTFGQGTKLEIKR

- Kd: 0.00707 nM
- koff: 2.36e-05 s⁻¹
- kon: 3.35e+06 M⁻¹ s⁻¹
B2: 抗人白介素17A单克隆抗体QX002N (antibody, V domains shown)
VH: EVQLQESGPGLVKPSETLSLTCTVSGIDLSLFYMSWIRQPPGKGLEWIGTIHEVASSYYASWAKGRVTISKDTSKNQFSLKLSSVTAADTAVYYCARETYSSRYPYPNIWGQGTLVTVSS
VL: DIQMTQSPSSVSASVGDRVTITCQASQNIGGSLAWYQQKPGKAPKLLIYGASSLASGVPSRFSGSGSGTDFTLTISSLQPEDFATYYCQSYNTISTYGLAFGGGTKVEIK
notes: Humanised from rabbit clone 37#; also called 37-5

Source: patent publication CN108640991A (JIANGSU QYUNS BIOMEDICINE CO LTD, dated 2018)
